Measurements as given in patent US20240279622A1, “COELENTERAZINE-UTILIZING LUCIFERASES WITH STABLE GLOW-TYPE LIGHT EMISSION AND METHODS OF PRODUCING AND USING THEREOF” (MASARYKOVA UNIVERZITA, priority 2021, published 2024).
Numbering of substitutions follows the chain as printed. Names may count otherwise. One block for each molecule: values may come before it.

Experiments:
[1] = Anaerobic equilibrium binding of coelenterazine substrate (fluorescence)
Method: The experiments were performed under strictly anaerobic conditions to prevent enzymatic oxidation of interacting ligands. To do so, all the equipment and material, including water, buffer, pipettes, tips, syringes, microplates, and sealing, were made anaerobic by incubating them overnight in the anaerobic glovebox Belle MR2 (Belle Technology, UK). The box was filled with ultra-high purity (UHP) nitrogen atmosphere containing the residual oxygen concentration of 2.3 ppm, as determined by the oxygen meter O2M-3 (Belle Technology, UK). Liquids were aliquoted to the volume of maximally 50 mL and were stirred overnight in the box to release any dissolved oxygen. Two hours prior to the experiment, a closed bottle with an evacuated lyophilized enzyme (oxygen depleted) was put into the glovebox, dissolved with anaerobic water, and incubated to remove any remaining oxygen possibly dissolved in the solution. Similarly, the stock solution of coelenterazine or coelenteramide in ethanol, which was long-term stored in a freezer under the nitrogen atmosphere without oxygen, was put into the glovebox in a closed bottle. A small aliquot of coelenterazine/coelenteramide was transferred into a new empty bottle and kept open for about 20 minutes to remove the remaining dissolved oxygen. After the incubation, a few microliters of an enzyme were mixed with the same amount of coelenterazine, and the mixture was visually inspected for any possible bioluminescence. If no light was observed and the mixture remained yellow even after a minute, all the reagents were ready for anaerobic measurements.
(§1) In the anaerobic glovebox, 200 μL of a differently concentrated enzyme was put into a separate well in a microplate and into each of these wells, 5 μL of coelenterazine or coelenteramide stock solution was added. As a blank, 200 μL of the enzyme was mixed with 5 μL of ethanol for each enzyme concentration. […] The extent of coelenterazine binding at each concentration was determined by measuring fluorescence spectra ranging from 480 to 580 nm upon excitation at 420 nm using the microplate spectrophotometer Varioskan LUX (Thermo Scientific, USA). Binding of coelenteramide was monitored by measuring fluorescence spectra ranging from 350 to 700 nm upon excitation at 330 nm. […]
The obtained fluorescence spectra were visually inspected for characteristic peaks, and the value of the maximal fluorescence intensity Fluomax at these peaks was plotted against the enzyme concentration. The final value of the dissociation constant Kd was determined by fitting the dependence with the hyperbolic Equation (8) using the software Origin 6.1 (OriginLab, USA).

[2] = Anaerobic equilibrium binding of coelenteramide product (fluorescence); conditions: pH 7.5, 30° C., read-out: Dissociation constant Kd, Coelenteramide product
Method: The experiments were performed under strictly anaerobic conditions to prevent enzymatic oxidation of interacting ligands. To do so, all the equipment and material, including water, buffer, pipettes, tips, syringes, microplates, and sealing, were made anaerobic by incubating them overnight in the anaerobic glovebox Belle MR2 (Belle Technology, UK). The box was filled with ultra-high purity (UHP) nitrogen atmosphere containing the residual oxygen concentration of 2.3 ppm, as determined by the oxygen meter O2M-3 (Belle Technology, UK). Liquids were aliquoted to the volume of maximally 50 mL and were stirred overnight in the box to release any dissolved oxygen. […] If no light was observed and the mixture remained yellow even after a minute, all the reagents were ready for anaerobic measurements.
as §1, with “added.” for “added. As a blank, 200 μL of the enzyme was mixed with 5 μL of ethanol for each enzyme concentration.”

[3] = Thermal unfolding by NanoDSF (tryptophan fluorescence); format: physicochemical; conditions: 100 mM potassium phosphate buffer pH 7.5, 1° C./min
Method: Thermal unfolding was studied using NanoDSF Prometheus (NanoTemper, Germany) by monitoring tryptophan fluorescence over the temperature range of 20 to 90° C., at a heating rate of 1° C./min. The melting temperatures (Tonset and Tm) were evaluated directly by ThermControl v2.0.2.

[4] = Stopped-flow pre-steady-state kinetics of substrate binding (tryptophan fluorescence quenching); conditions: 15° C.
Method: The measurement was performed at 15° C. in 100 mM potassium phosphate buffer pH 7.5. Rapid mixing of the components was achieved using the Stopped-Flow SFM 3000 combined with the MOS-500 spectrometer (BioLogic, France). The reaction was initiated by mixing 75 μL of an enzyme with 75 μL of coelenterazine and then monitored by the change of native tryptophan fluorescence (295 nm excitation, 340±13 nm emission). The fluorescence changes were caused by the quenching effect of the coelenterazine substrate upon its binding by an enzyme. The experiment was designed in two different modes, varying either the concentration of the coelenterazine substrate or the concentration of an enzyme. Each kinetic trace was measured in seven consecutive replicates and averaged. The concentration of coelenterazine in the final reaction mixture ranged from 0.9 to 90 μM while the concentration of luciferase enzymes ranged from 0.4 to 94 μM.
The collected double-exponential kinetic traces were fitted globally with the KinTek Explorer (KinTek Corporation, USA). The software allows for the input of a given kinetic model via a simple text description, and the program then derives the differential equations needed for numerical integration automatically. Numerical integration of rate equations searching a set of kinetic parameters that produce a minimum χ^2 value was performed using the Bulirsch-Stoer algorithm with adaptive step size, and nonlinear regression to fit data was based on the Levenberg-Marquardt method. Residuals were normalized by sigma values for each data point. The standard error was calculated from the covariance matrix during nonlinear regression. In addition to standard error values, more rigorous analysis of the variation of the kinetic parameters was accomplished by confidence contour analysis by using FitSpace Explorer (KinTek Corporation, USA). In these analyses, the lower and upper limits for each parameter were derived from the confidence contour obtained from setting the χ^2 threshold at 0.95.
The time-course of the fluorescence quenching upon substrate binding was described with Equation (7) according to the induced-fit binding mechanism and the mechanism was fit directly to the collected kinetic data to obtain the values of elementary rate constants describing the substrate binding process. The quality of the best fits was compared in terms of χ^2 values, “chi-by-eye” assessment, and confidence contour analysis assessing constraint and independency of the determined parameters which confirmed that the obtained values are well-defined by the collected kinetic data.

[5] = Steady-state kinetic analysis of full-conversion cumulative luminescence curves; format: biochemical; conditions: for kcat / Kd: 100 mM phosphate buffer pH 7.5, 37° C.; for Kd: read-out: Kp (equilibrium dissociation constant for enzyme-product complex); for Decrease of ratio Km/Kp: compared to the other tested variants; for Glow-type effectivity: kcat/Km divided by Km/Kp
Method: Each luminescence trace was measured in 3 repetitions. The concentration of coelenterazine in the final reaction mixture ranged from 0.2 to 7.9 μM while the concentration of luciferase enzymes ranged from 17 to 640 nM.
An updated protocol applying new standards for collecting and fitting steady-state kinetic data was used. Unlike the classical initial velocity analysis, which requires a sophisticated luminometer calibration and quantum yield evaluation, luminescence data were recorded when letting the reaction proceed to completion beyond the initial linear phase. The recorded luminescence traces (rate vs. time) were transformed to reaction progress curves corresponding to cumulative luminescence in time. The transformed kinetic data (product vs. time) were fitted globally with the KinTek Explorer (KinTek Corporation, USA). The software allows for the input of a given kinetic model via a simple text description, and the program then derives the differential equations needed for numerical integration automatically.
Numerical integration of rate equations searching a set of kinetic parameters that produce a minimum χ^2 value was performed using the Bulirsch-Stoer algorithm with adaptive step size, and nonlinear regression to fit data was based on the Levenberg-Marquardt method. To account for fluctuations in experimental data, enzyme or substrate concentrations were slightly adjusted (5%) to derive best fits. Residuals were normalized by sigma values for each data point. The standard error was calculated from the covariance matrix during nonlinear regression. In addition to standard error values, more rigorous analysis of the variation of the kinetic parameters was accomplished by confidence contour analysis by using FitSpace Explorer (KinTek Corporation, USA). In these analyses, the lower and upper limits for each parameter were derived from the confidence contour obtained from setting χ^2 threshold at 0.9. The scaling factor, relating luminescence signal to product concentration, was applied as one of the fitted parameters, well constrained by end-point levels of kinetic traces recorded at particular substrate concentrations. Depletion of the available substrate after the reaction was ensured by repeated injection of the fresh enzyme.
The steady-state model, described by Equation (4), was used to obtain the values of turnover number kcat, Michaelis constant Km, and equilibrium dissociation constant for enzyme-product complex Kp. A conservative estimate for diffusion-limited substrate and product binding k1 and k3 (100 μM^−1·s^−1) was used as a fixed value to mimic the rapid equilibrium assumption. An alternative form of the model, described by Equation (5), was used to obtain estimates of kcat/Km directly by setting k−1=0.

- Kd ([1]; anaerobic, pH 7.5, 30° C., read-out: Dissociation constant Kd, Coelenterazine substrate): 12 ± 5 µM
- Kd ratio substrate/product ([1]; ratio): 0.7 ± 0.3
- Kd [2]: 16 ± 2 µM
- k+2 ([4]; pH 7.5): 31.9 ± 1.1 s⁻¹
- k−1 ([4]; pH 7.5): 367 ± 5 s⁻¹
- k−2 ([4]; pH 7.5): 27.5 ± 0.4 s⁻¹
- k+1 ([4]; pH 7.5, induced-fit binding mechanism): 5.21 ± 0.07 µM⁻¹ s⁻¹
- Kd [5]: 500 ± 100 nM
B1: AncFT: Ancestral protein AncHLD-RLuc with the L9-α4 region transplanted from RLuc; glow-type coelenterazine-utilizing luciferase (protein)
chain: MVSASQRTTSTATGDEWWAKCKQVDVLDSEMSYYDSDPGKHKNTVIFLHGNPTSSYLWRNVIPHVEPLARCLAPDLIGMGKSGKLPNHSYRFVDHYRYLSAWFDSVNLPEKVTIVCHDWGSGLGFHWCNEHRDRVKGIVHMESVVDVIESWDEWPDIEEDIALIKSEAGEEMVLKKNFFIERLLPSSIMRKLSEEEMDAYREPFVEPGESRRPTLTWPREIPIKGDGPEDVIEIVKSYNKWLSTSKDIPKLFINADPGFFSNAIKKVTKNWPNQKTVTVKGLHFLQEDSPEEIGEAIADFLNELTK
modifications: Amino acid sequence of AncFT
- Tm [3]: 56.6 ± 0.1 °C
- Tonset [3]: 50.5 ± 0.1 °C
- kcat [5]: 0.111 ± 0.001 s⁻¹
- Decrease of ratio Km/Kp [5]: 10 fold
- Glow-type effectivity [5]: 12 ± 3

- Kd [5]: 550 ± 30 nM
B2: AncFT-L14: AncFT with additionally transplanted L14 loop (LVKGGKP at positions 223 to 229) from RLuc (protein)
chain: B1 chain with I223L, K224V, G225K, D226G, P228K, E229P
modifications: Amino acid sequence of AncFT-L14
notes: AncFT with additionally transplanted L14 loop (LVKGGKP at positions 223 to 229) from RLuc
- Tm [3]: 47.0 ± 0.1 °C
- Tonset [3]: 39.8 ± 0.2 °C
- kcat [5]: 0.168 ± 0.001 s⁻¹
- Improvement of glow-type effectivity ([5]; compared to AncFT): 4 fold
- Improvement of glow-type effectivity ([5]; compared to RLuc8): more than 20 fold
- Decrease of ratio Km/Kp [5]: 10 fold
- Glow-type effectivity [5]: 48 ± 6

- Kd [5]: 230 ± 10 nM
B3: AncFT-D160A: AncFT carrying the single-point D160A mutation; blue-shifted emission (protein)
chain: B1 chain with D160A
modifications: Amino acid sequence of AncFT-D160A
notes: AncFT carrying the single-point D160A mutation; blue-shifted emission
- Tm [3]: 57.9 ± 0.1 °C
- Tonset [3]: 51.5 ± 0.1 °C
- kcat [5]: 0.339 ± 0.001 s⁻¹
- Decrease of ratio Km/Kp [5]: 10 fold
- Glow-type effectivity [5]: 3.6 ± 0.3

- Kd [5]: 920 ± 10 nM
B4: Super RLuc8: Recently reported RLuc8 enzyme variant (Rahnama et el., 2017) (protein)
chain: MTSKVYDPEQRKRMITGPQWWARCKQMNVLDSFINYYDSEKHAENAVIFLHGNATSSYLWRHVVPHIEPVARCIIPDLIGMGKSGKSGNGSYRLLDHYKYLTAWFELLNLPKKIIFVGHDWGSALAFHYAYEHQDRIKAIVHMESVVDVIESWKNWPDIEEELALIKSEEGEKMVLENNFFVETVLPSVIMRKLEPEEFAAYLEPFKEKGEVRRPTLSWPREIPLVKGGKPDVVQIVRNYNAYLRASDDLPKLFIESDPGWFSNAIIEGAKKFPNTEFVKVKGLHFLQEDAPDEMGKYIKSFVERVLKNEQ
modifications: Super RLuc8
- Tm [3]: 50.1 ± 0.2 °C
- Tonset [3]: 39.1 ± 0.3 °C
- kcat [5]: 6.49 ± 0.05 s⁻¹
- Glow-type effectivity [5]: 0.17 ± 0.02
